Test system: Escherichia coli TOP10
Experiment: shrunken log2 fold change of peptide-encoding DNA abundance (4.5 h post-induction vs induction); higher = less antimicrobial activity (less host growth inhibition)
Settings: time post-induction: 4.5 h; library: site-saturation at positions 5, 18, 19, 20
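Note: peptides expressed intracellularly from a pBAD plasmid library in pooled LB shake-flask culture, induced with 0.3% L-arabinose, DNA abundance read by NGS, three biological replicates, DESeq2 with apeglm shrinkage.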

| Sequence | shrunken log2 fold change |
| --- | --- |
| RRIRVRPPRLPRPRPRPFTRPRP | 0.114 |
| RRIRQRPPRLPRPRPRPKYEPRP | 0.0304 |
| RRIRPRPPRLPRPRPRPRQVPRP | 0.474 |
| RRIRARPPRLPRPRPRPLMNPRP | -0.178 |
| RRIRCRPPRLPRPRPRPGHVPRP | 0.0304 |
| RRIRKRPPRLPRPRPRPAYTPRP | -0.0132 |
| RRIRQRPPRLPRPRPRPMSWPRP | -0.0294 |
| RRIRNRPPRLPRPRPRPYEKPRP | -0.0332 |
| RRIRFRPPRLPRPRPRPKKIPRP | -0.028 |
| RRIRHRPPRLPRPRPRPMDLPRP | 0.00707 |
| RRIRYRPPRLPRPRPRPAEHPRP | -0.0954 |
| RRIRDRPPRLPRPRPRPDRAPRP | 0.281 |
| RRIRQRPPRLPRPRPRPTRHPRP | 0.434 |
| RRIRLRPPRLPRPRPRPHWSPRP | 0.0161 |
| RRIRNRPPRLPRPRPRPREDPRP | 0.102 |
| RRIRMRPPRLPRPRPRPTLTPRP | 1.4 |
| RRIRGRPPRLPRPRPRPQFAPRP | 0.273 |
| RRIRVRPPRLPRPRPRPRIVPRP | 0.166 |
| RRIRFRPPRLPRPRPRPNAWPRP | -0.171 |
| RRIRNRPPRLPRPRPRPEDKPRP | 0.114 |
| RRIRNRPPRLPRPRPRPAQIPRP | 0.603 |
| RRIRKRPPRLPRPRPRPGQCPRP | 0.0394 |
| RRIRSRPPRLPRPRPRPNKLPRP | -0.643 |
| RRIRKRPPRLPRPRPRPYYNPRP | -0.197 |
| RRIRARPPRLPRPRPRPAAKPRP | 1.04 |

| Sequence | shrunken log2 fold change |
| --- | --- |
| RRIRWRPPRLPRPRPRPEILPRP | -0.0318 |
| RRIRFRPPRLPRPRPRPFLFPRP | -0.457 |
| RRIRKRPPRLPRPRPRPPYEPRP | 0.0908 |
| RRIRNRPPRLPRPRPRPRQNPRP | -0.118 |
| RRIRGRPPRLPRPRPRPIMFPRP | 0.382 |
| RRIRNRPPRLPRPRPRPTCPPRP | 0.059 |
| RRIRCRPPRLPRPRPRPIKVPRP | -0.000403 |
| RRIRCRPPRLPRPRPRPCNQPRP | -0.412 |
| RRIRKRPPRLPRPRPRPLYTPRP | -0.288 |
| RRIRARPPRLPRPRPRPMQEPRP | 0.421 |
| RRIRARPPRLPRPRPRPIYVPRP | -0.25 |
| RRIRERPPRLPRPRPRPEEDPRP | -0.058 |
| RRIRTRPPRLPRPRPRPKNCPRP | -0.0901 |
| RRIRDRPPRLPRPRPRPRGPPRP | 0.366 |
| RRIRWRPPRLPRPRPRPDQFPRP | -0.0202 |
| RRIRTRPPRLPRPRPRPNKCPRP | -0.314 |
| RRIRDRPPRLPRPRPRPFWVPRP | -0.222 |
| RRIRHRPPRLPRPRPRPRNYPRP | -0.282 |
| RRIRNRPPRLPRPRPRPVGQPRP | -0.185 |
| RRIRARPPRLPRPRPRPYQQPRP | -0.316 |
| RRIRDRPPRLPRPRPRPFKEPRP | 0.0108 |
| RRIRPRPPRLPRPRPRPCRKPRP | -0.134 |
| RRIRWRPPRLPRPRPRPHKWPRP | 0.18 |
| RRIRPRPPRLPRPRPRPVEWPRP | 0.0458 |
| RRIRLRPPRLPRPRPRPAHYPRP | -0.147 |

| Sequence | shrunken log2 fold change |
| --- | --- |
| RRIRLRPPRLPRPRPRPIVSPRP | -0.0372 |
| RRIRCRPPRLPRPRPRPNLGPRP | -0.283 |
| RRIRYRPPRLPRPRPRPNLFPRP | -0.676 |
| RRIRGRPPRLPRPRPRPYNFPRP | -0.35 |
| RRIRDRPPRLPRPRPRPEQCPRP | -0.00146 |
| RRIRFRPPRLPRPRPRPVVAPRP | 0.0597 |
| RRIRFRPPRLPRPRPRPLAHPRP | -0.13 |
| RRIRSRPPRLPRPRPRPMMTPRP | -0.0968 |
| RRIRWRPPRLPRPRPRPKFEPRP | 0.2 |
| RRIRYRPPRLPRPRPRPHFAPRP | -0.284 |
| RRIRGRPPRLPRPRPRPYSMPRP | 0.00971 |
| RRIRVRPPRLPRPRPRPNDFPRP | -0.0485 |
| RRIRPRPPRLPRPRPRPCWCPRP | -0.0719 |
| RRIRLRPPRLPRPRPRPNMPPRP | -0.265 |
| RRIRIRPPRLPRPRPRPMREPRP | 0.0761 |
| RRIRFRPPRLPRPRPRPDSPPRP | -0.168 |
| RRIRPRPPRLPRPRPRPGPVPRP | 0.258 |
| RRIRTRPPRLPRPRPRPHQFPRP | -0.738 |
| RRIRIRPPRLPRPRPRPKNSPRP | -0.503 |
| RRIRTRPPRLPRPRPRPQEFPRP | 0.0555 |
| RRIRLRPPRLPRPRPRPHKDPRP | -0.697 |
| RRIRPRPPRLPRPRPRPCRLPRP | -0.29 |
| RRIRWRPPRLPRPRPRPIHQPRP | 0.0226 |
| RRIRARPPRLPRPRPRPWQFPRP | 0.456 |
| RRIRCRPPRLPRPRPRPVQSPRP | 0.132 |

| Sequence | shrunken log2 fold change |
| --- | --- |
| RRIRSRPPRLPRPRPRPSHWPRP | 0.337 |
| RRIRMRPPRLPRPRPRPNEKPRP | 0.0356 |
| RRIRSRPPRLPRPRPRPDWFPRP | 0.0986 |
| RRIRIRPPRLPRPRPRPFCIPRP | -0.581 |
| RRIRPRPPRLPRPRPRPLMIPRP | -0.152 |
| RRIRDRPPRLPRPRPRPHPKPRP | -0.149 |
| RRIRNRPPRLPRPRPRPRESPRP | -0.0379 |
| RRIRSRPPRLPRPRPRPGQVPRP | -0.0247 |
| RRIRFRPPRLPRPRPRPYIYPRP | -0.0532 |
| RRIRERPPRLPRPRPRPEHDPRP | -0.0107 |
| RRIRKRPPRLPRPRPRPGSFPRP | 0.133 |
| RRIRIRPPRLPRPRPRPNRYPRP | -0.295 |
| RRIRARPPRLPRPRPRPKNQPRP | 0.249 |
| RRIRNRPPRLPRPRPRPVLYPRP | -0.374 |
| RRIRQRPPRLPRPRPRPTWDPRP | 0.0355 |
| RRIRGRPPRLPRPRPRPFNCPRP | -0.116 |
| RRIRERPPRLPRPRPRPTTVPRP | -0.147 |
| RRIRKRPPRLPRPRPRPIWGPRP | -0.0432 |
| RRIRCRPPRLPRPRPRPVKHPRP | -0.263 |
| RRIRSRPPRLPRPRPRPWYDPRP | -0.511 |
| RRIRYRPPRLPRPRPRPCWHPRP | -0.0701 |
| RRIRARPPRLPRPRPRPIDVPRP | -0.641 |
| RRIRDRPPRLPRPRPRPYDRPRP | -0.0075 |
| RRIRRRPPRLPRPRPRPMRIPRP | 0.0269 |
| RRIRKRPPRLPRPRPRPNCCPRP | 0.179 |

| Sequence | shrunken log2 fold change |
| --- | --- |
| RRIRFRPPRLPRPRPRPAYHPRP | -0.00712 |
| RRIRDRPPRLPRPRPRPPKHPRP | 0.0331 |
| RRIRRRPPRLPRPRPRPWINPRP | -0.37 |
| RRIRWRPPRLPRPRPRPKNYPRP | -0.152 |
| RRIRARPPRLPRPRPRPNGKPRP | 0.3 |
| RRIRARPPRLPRPRPRPVLMPRP | 0.199 |
| RRIRNRPPRLPRPRPRPWQCPRP | -0.108 |
| RRIRARPPRLPRPRPRPIALPRP | 0.0719 |
| RRIRFRPPRLPRPRPRPDHHPRP | -0.452 |
| RRIRHRPPRLPRPRPRPMDFPRP | 3.65 |
| RRIRERPPRLPRPRPRPERNPRP | -0.0672 |
| RRIRQRPPRLPRPRPRPAVEPRP | 0.149 |
| RRIRMRPPRLPRPRPRPYGGPRP | -1.22 |
| RRIRWRPPRLPRPRPRPAMNPRP | -0.326 |
| RRIRMRPPRLPRPRPRPPKGPRP | 0.873 |
| RRIRNRPPRLPRPRPRPAPNPRP | -0.0796 |
| RRIRGRPPRLPRPRPRPQPKPRP | 0.884 |
| RRIRRRPPRLPRPRPRPDWNPRP | -0.223 |
| RRIRGRPPRLPRPRPRPVSAPRP | 0.676 |
| RRIRNRPPRLPRPRPRPNIEPRP | -0.027 |
| RRIRWRPPRLPRPRPRPALGPRP | 0.645 |
| RRIRKRPPRLPRPRPRPVHRPRP | -0.0578 |
| RRIRNRPPRLPRPRPRPDLDPRP | 0.0497 |
| RRIRSRPPRLPRPRPRPMCEPRP | -0.0274 |
| RRIRKRPPRLPRPRPRPQWAPRP | -0.0368 |

| Sequence | shrunken log2 fold change |
| --- | --- |
| RRIRVRPPRLPRPRPRPDQHPRP | -0.0679 |
| RRIRHRPPRLPRPRPRPKIAPRP | 0.00548 |
| RRIRRRPPRLPRPRPRPSNAPRP | 0.204 |
| RRIRWRPPRLPRPRPRPRWMPRP | 0.1 |
| RRIRPRPPRLPRPRPRPGYRPRP | -0.051 |
| RRIRKRPPRLPRPRPRPFNFPRP | -0.296 |
| RRIRNRPPRLPRPRPRPLPPPRP | 0.5 |
| RRIRERPPRLPRPRPRPLPAPRP | 0.065 |
| RRIRGRPPRLPRPRPRPADEPRP | 0.239 |
| RRIRVRPPRLPRPRPRPIMTPRP | -0.359 |
| RRIRQRPPRLPRPRPRPRMHPRP | -0.0115 |
| RRIRCRPPRLPRPRPRPMNGPRP | -0.0977 |
| RRIRGRPPRLPRPRPRPIRTPRP | 0.21 |
| RRIRSRPPRLPRPRPRPLQRPRP | 0.0641 |
| RRIRYRPPRLPRPRPRPDHMPRP | -0.552 |
| RRIRRRPPRLPRPRPRPTPNPRP | 0.945 |
| RRIRPRPPRLPRPRPRPDWAPRP | 0.0079 |
| RRIRCRPPRLPRPRPRPRVGPRP | 0.472 |
| RRIRIRPPRLPRPRPRPFTRPRP | 0.114 |
| RRIRMRPPRLPRPRPRPWGPPRP | 0.106 |
| RRIRWRPPRLPRPRPRPYITPRP | -0.13 |
| RRIRLRPPRLPRPRPRPDIDPRP | 0.0249 |
| RRIRIRPPRLPRPRPRPWLHPRP | -0.496 |
| RRIRIRPPRLPRPRPRPMPGPRP | -0.172 |
| RRIRYRPPRLPRPRPRPCHPPRP | -0.669 |

Reference: the supplement of paper PMC9112550, “Optimization of the antimicrobial peptide Bac7 by deep mutational scanning” (BMC Biology, 2022)
